The target in experiment [1] is T1, human C3b (human, UniProt P01024 749-1663).
T1 construct: Complement C3 beta chain, human; cut product of the C3 precursor; C3b alpha chain (C3 alpha chain after release of C3a), human; Two-chain fragment of C3; amine-coupled to the chip in SPR, free in the cryo-EM sample; also called hC3b; plasma-purified C3b; source: bought: Complement Technology (plasma-purified)
Briefly: SPR; Biacore T200; human C3b amine-coupled; multicycle kinetics, serial 2-fold dilutions of peptide, 120 s injection, 180 s dissociation, regeneration 1 M NaCl; 25 °C, HBST pH 7.4; Langmuir 1:1 fit, KD = kd/ka; mean of 3 experiments. The note with it: both partners purified. (In SPR one partner is held on a chip, and binding of the other changes the refractive index at the surface.)

For experiment [2], the target named is T1, human C3b. The experiment is described as follows: SPR; Biacore T200; human C3b amine-coupled; single-cycle kinetics, 5 increasing concentrations (0.5-40 nM), final dissociation 100-240 min; 25 °C, HBST pH 7.4; global Langmuir 1:1 fit; mean of 3 experiments. As to conditions: both partners purified.

Bridges are numbered along the chain shown (N, C = ends). Where no end group is shown, it is not given here. [ ]: non-standard residue; d: D form. Trp(1-Me) = Cn1cc(C[C@H](N)C(=O)O)c2ccccc21; Nva(3-Et) = CCC(CC)[C@H](N)C(=O)O; Asu = N[C@@H](CCCCCC(=O)O)C(=O)O; NMeI = CC[C@H](C)[C@H](NC)C(=O)O; Sar = CNCC(=O)O

B1: Cp01 W7Bta analog (peptide)
chain: ICVWQDXGAHRCT
modifications: (3-benzothienyl)alanine (Bta) at position 7; acetyl at position 0; cyclic (cyclized by H2O2)
The molecule B1 came in with an equilibrium dissociation constant (Kd) with human C3b [1] of over 16000 nM.
For Ac-ICVWQ[Asu]WGAHRCT (disulfide 2-12 (inferred)) [Cp01 Asp6Asu analog], in the experiment with human C3b [1], the Kd was found to be 2080 nM, the koff came to 0.23 s⁻¹ and the kon turned out to be 120000 M⁻¹ s⁻¹.
In the experiment with human C3b [1], Ac-ICVWQDW[dA]AHRCT (disulfide 2-12 (inferred)) [Cp01 Gly8D-Ala analog] yielded a Kd of over 16000 nM.

B2: Cp01 Val3Tbg analog (peptide)
chain: ICXWQDWGAHRCT
modifications: α-tert-butyl-glycine (Tbg) at position 3; acetyl at position 0; cyclic (cyclized by H2O2)
B2 displayed a Kd with human C3b [1] of 103 nM.
In the experiment with human C3b [2], [dY]IC[Nva(3-Et)][Trp(1-Me)]QDW[Sar]AHRC[NMeI] (disulfide 3-13 (inferred)) [Cp40 Dea3 analog] registered a Kd of 13.6 nM, a koff of 0.006 s⁻¹ and a kon of 430000 M⁻¹ s⁻¹.

B3: Cp01 Val3Nva analog (peptide)
chain: ICXWQDWGAHRCT
modifications: not fully specified; norvaline (Nva) at position 3; acetyl at position 0; cyclic (cyclized by H2O2)
In the experiment with human C3b [1], B3 registered a Kd of 1660 nM.

One may read the Kd as the concentration at which binding is half-saturated. In general, koff refers to a measure of how fast the partners let go of each other. A lower koff goes with a long-lived complex. In general, kon refers to a measure of how fast the partners come together. Low values mean slower complex formation, high ones faster complex formation.
